8 molecules from patent publication US20260241035A1, “FUNCTIONAL NUCLEIC ACID MOLECULE AND METHOD” (THE UNIVERSITY COURT OF THE UNIVERSITY OF EDINBURGH, priority 2022, published 2026) can be followed below.

Series [1] relates to GSC7 cells. Nature of the series: Nano-Glo Dual-Luciferase Reporter (Nanoglo DLR) assay of enhancer activity, fold change to mCMV. In kind it is cell-based, human. As to conditions: for activity compared with CMV, Nanoglo DLR assay: GSC7; for Fold change (Median): expression fold change of the individual enhancer compared to mCMV. The method, boiled down: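 160 bp enhancer fragments in NanoLuc reporter plasmids were co-transfected 1:10 with PGK-firefly luciferase into GSC7 cells using Lipofectamine LTX/Plus and read two days later. NanoLuc signal was normalised to firefly, then expressed as fold change to the empty mCMV vector.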
Background: Reporter assays use an easily measured gene product as a stand-in for the process of interest.

For series [2], the system named is GSC7 cells. As to the kind of experiment: Flow cytometry of mNGreen reporter in GSC7. It is filed as cell-based, human. As to the method: Cells were seeded at the required density. The following day the transfection was carried out. […] Following this step, the Plus reagent/Optimem premix was added to all DNA samples followed by the Lipofectamine LTX/Optimem premix. The transfection mix was incubated for 5 min at room temperature and then carefully dropped on the cells. Generally, no media change was carried out. Cells were analysed two days following transfection.
For flow cytometry, cells were detached, pelleted and resuspended in an appropriate volume of flow cytometry buffer (1% BSA in PBS, v/v). Cells were stained with Draq7 (Abcam, ab109202, f.c. 0.1 μM) as a live/dead stain and analysed using the BD LSRFortessa cell analyser (4 lasers, BD Bioscience).

The next series has as its target T1, SOX9 (Homo sapiens, UniProt P48436).
T1 construct: These dsDNA fragments were incubated with nuclear extract from GSC7 and GSC328; endogenous in cells; host or cells: nuclear extract of GSC7 and/or GSC328 (patient-derived glioblastoma stem cell lines)
T1 sequence (P48436 1-509): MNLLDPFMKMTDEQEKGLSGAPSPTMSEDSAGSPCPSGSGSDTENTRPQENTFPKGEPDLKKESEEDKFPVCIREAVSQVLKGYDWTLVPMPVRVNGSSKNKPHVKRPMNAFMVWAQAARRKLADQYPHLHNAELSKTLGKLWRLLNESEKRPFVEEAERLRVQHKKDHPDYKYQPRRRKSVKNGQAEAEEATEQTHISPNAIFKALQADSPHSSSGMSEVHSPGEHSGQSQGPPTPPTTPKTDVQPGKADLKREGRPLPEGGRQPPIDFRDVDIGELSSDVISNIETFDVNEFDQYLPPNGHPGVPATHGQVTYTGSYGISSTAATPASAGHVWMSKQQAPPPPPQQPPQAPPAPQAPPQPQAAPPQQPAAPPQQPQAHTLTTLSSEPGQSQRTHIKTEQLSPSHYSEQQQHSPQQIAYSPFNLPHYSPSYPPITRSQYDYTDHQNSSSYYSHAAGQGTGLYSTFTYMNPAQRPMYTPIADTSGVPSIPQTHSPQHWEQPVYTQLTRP
Nature of the series: Biotinylated enhancer pull down from nuclear extract, SOX9 detection. In kind it is binding. As to conditions: random DNA 599 as negative control.

Method for SOX9: The oligo was PCR-amplified using biotinylated primers. The PCR product was then SPRI purified to remove biotinylated primer dimers. These dsDNA fragments were incubated with nuclear extract from GSC7 and GSC328. They were then bound to streptavidin magnetic beads, washed three times and the frozen beads were sent for mass spectrometry analysis.
All the buffers were prepared the day before, passed through a 22 μm filter (except the dialysis buffer) and left at 4° C. overnight. DTT and protease inhibitors were added just before use. […] The cell suspension was transferred to a glass Dounce homogenizer and dounced 40 times on ice. […] Dialysis buffer was changed (500 ml) and the dialysis was continued overnight at 4° C. The extract was collected in an 1.5 ml tube and spun at maximum speed for 15 min at 4° C. […] 100 μg aliquots were flash frozen in liquid nitrogen and stored at −80° C.
Enhancers were amplified with 5′ biotinylated primers (Table 5) using PrimeStar Max (Takara) according to the manufacturer's instructions.
Streptavidin Magnetic Bead (NEB, S1420S) were used according to the manufacturer's instructions. […]
Next, we aimed to confirm that indeed SOX2 and SOX9 are binding to the enhancer and the SOX dimer motif. […] To filter for transcription factors a list of all transcription factors was obtained from UniProt and overlapped with the detected proteins in both cell lines.

B1: SSE-3: synthetic super-enhancer ID0876_ID2339_ID1737_ID0663, SEQ ID NO: 66 (nucleic acid)
DNA: GAGCAGGCAGTCATTTGGTTCCCTTCTCTGAATGCATTGGCTCTGATCCACGGCGCCTCAGGAAGTGAAAGGGAGCAGGCAGTGAGGCCAAGCCATGAATGTTGGGCCCTTTTCTTAGAAAACAAAGGGTTCACTTTAGGCTAGGAGGAAACATCCGGGGGTCGGCGGAACTGAGTCTCCTTTGTGGAGCCCCTCATTTGCATGATAAACCCCGGGGACAAAGTGTGTTCTTGTTACTTGGACTGTTTCTTGGAAACTGCTGCTACCTGGAGCGAGTGAACACAGGGCAAGTATTCTCGCCCACAGCAACGTGTCATTGACAACGTTTTTGGCAGATGCAGCTCTTTCTGAACAGTAAGTCATTGTTGAGTGACATGAATAGGACGAGAGCTACAGAAAATGAAGGTTTCAAAAGATTGTCTAAAACAAAAGTCCTTTCAGTCCCGTATTCAGAGTTATAAATTCCGATTAGCCAAGGAAGCTCTGAGTCTAAATACCAGCAAAGCTCAGCCCCTGCAAGTGGGGACGAATTATTTGAAAGGTCATCCTAGAGACACTGAACAAAGGGCCTCTAGCAGCT
As to B1, the “activity compared with CMV, Nanoglo DLR assay” value (from here on “activity compared with CMV”) with GSC7 cells [1] is “higher than CMV”. Moreover, in the series with GSC7 cells [2], the “expression level compared with positive control CMV, flow cytometry” value is reported as “higher than CMV”.

B2: ID1322: enhancer fragment, SEQ ID NO: 27 (nucleic acid)
DNA: GGGCAACAAAGGATGCCATGCAAAGCAGCTCAGAACTTGAGTTGTTTCAACAGATGCTGTTTTATGTTTTGCCAAAGAATGGCCCCTTTTATTTCTGTCATGAATGCAGTCTTTCTTTCAGTTTCTAAATGTTTGCCAGTATTAACCCTAATCCTTATCT
As for B2, the “Fold change (Median)” value with GSC7 cells [1] worked out at 26.7 fold.

B3: SSE-1: synthetic super-enhancer ID1101_ID2904_ID0109_ID4328, SEQ ID NO: 64 (nucleic acid)
DNA: GTGAGTGTGACTCACATGCTGGCATCAGAGCCCCTCTTAGAGCTTAGAACACTGGGCCTCTGTCAGGCAAAGAAAAGGAGTCCCTATGAATAGCCATCTCCACAAATAGCAGTTACTGTCACTTCTTAAAAGACACAAGCATGGCTGGAGACCGGCACTGTGCATGTTCTTGGGAAAAAGTGGTATTTAATGAAGGCGCTTTGAGCTGAATCAAAGAGCCTCATTCTTCTGAAAGTCCTTCTTCCTAGTCTCTGCATCCGGCTCCTATCAAAGGAAATCCACAGCTTTGGCTTTTCGTTGCTGTTGTCATGGAAATCGTTGAAATTGGATCCTGAGGAGAATGTCACCACCTCTTTGACAATAACTAGCTTTCAGAGCTGAACACAGTGAATCTGGATACTGTGTATATGTTTAAATGAGTTAGGAAATGACATCACATTATTTATTTCTTCTTTTGTGACTTAGTAAATTGACTTGGCCTACAATCTATTCTCCATAGTCATCAGAGTTTCTTTAAAGGCACGGTTCAGACAATGGCACCCTCTGTTCCAAACCCTCCAGGGCTTCCTATTTCACTTAGCATAAAAACCAAAGTCCTCACAATGACCGACAAGTCTTCACACAATGTGCCCCTTCATTG
Regarding B3, the “activity compared with CMV” value with GSC7 cells [1] is listed as “higher than CMV”. Moreover, in the series with GSC7 cells [2], the “expression level compared with positive control CMV, flow cytometry” value is given as “higher than CMV” and the “fluorescence intensity compared with CMV” value is listed as “higher intensity than CMV”.

B4: ID2904: enhancer fragment, SEQ ID NO: 5 (nucleic acid)
DNA: TGCATGTTCTTGGGAAAAAGTGGTATTTAATGAAGGCGCTTTGAGCTGAATCAAAGAGCCTCATTCTTCTGAAAGTCCTTCTTCCTAGTCTCTGCATCCGGCTCCTATCAAAGGAAATCCACAGCTTTGGCTTTTCGTTGCTGTTGTCATGGAAATCGTT
With B4, the “Fold change (Median)” value in the series on GSC7 cells [1] was determined as 251.6 fold. In addition, the SOX9 interaction entry with SOX9 is recorded as “selectively interacts”.

B5: ID0456: enhancer fragment, SEQ ID NO: 26 (nucleic acid)
DNA: ATCACAAAGTGGTTAGCATGCAGGGGAGTGCGCCGGTCCCCCGCCTGTATTTGCATGACAAAAGCGCCTGCCCAACGGCTCTCGGTGGCTTTGTTGAGAGCTGCAGCCTCGCTCAGGCTGAGCCTTGGGAATTGTTCCCCGACATTGGTTGTTCCTGGGC
With B5, the “Fold change (Median)” value in the series on GSC7 cells [1] is listed as 27.2 fold.

B6: ID1244: enhancer fragment, SEQ ID NO: 25 (nucleic acid)
DNA: ACAGCAGCCAGAGGAAGTGGCTGTGTACAGAGAGCTTTTGTGAGAGAAGAGGGGGAGGGGGAAAGAGCAAAGAAAAAGAAGGAAAGAAGAGAGGGAAGAGGCCAGAGACAGAGAAGGCCAGAGCA
modifications: listed as DNA, chemistry not given here
For B6, the “Fold change (Median)” value in the series with GSC7 cells [1] is 27.8 fold.

B7: SSE-2: synthetic super-enhancer ID0109_ID4328_ID0876_ID2339, SEQ ID NO: 65 (nucleic acid)
DNA: GAAATTGGATCCTGAGGAGAATGTCACCACCTCTTTGACAATAACTAGCTTTCAGAGCTGAACACAGTGAATCTGGATACTGTGTATATGTTTAAATGAGTTAGGAAATGACATCACATTATTTATTTCTTCTTTTGTGACTTAGTAAATTGACTTGGCCTACAATCTATTCTCCATAGTCATCAGAGTTTCTTTAAAGGCACGGTTCAGACAATGGCACCCTCTGTTCCAAACCCTCCAGGGCTTCCTATTTCACTTAGCATAAAAACCAAAGTCCTCACAATGACCGACAAGTCTTCACACAATGTGCCCCTTCATTGGAGCAGGCAGTCATTTGGTTCCCTTCTCTGAATGCATTGGCTCTGATCCACGGCGCCTCAGGAAGTGAAAGGGAGCAGGCAGTGAGGCCAAGCCATGAATGTTGGGCCCTTTTCTTAGAAAACAAAGGGTTCACTTTAGGCTAGGAGGAAACATCCGGGGGTCGGCGGAACTGAGTCTCCTTTGTGGAGCCCCTCATTTGCATGATAAACCCCGGGGACAAAGTGTGTTCTTGTTACTTGGACTGTTTCTTGGAAACTGCTGCTACCTGGAGCGAGTGAACACAGGGCAAGTATTCTCGCCCACAGCAACGTGTCATTGA
With B7, the “activity compared with CMV” value in the series on GSC7 cells [1] was “higher than CMV”. In the series with GSC7 cells [2], the “expression level compared with positive control CMV, flow cytometry” value is “higher than CMV” and the “fluorescence intensity compared with CMV” value is reported as “higher intensity than CMV”.

B8: SSE-5: synthetic super-enhancer ID2706_ID3547_ID3548_ID3146, SEQ ID NO: 68 (nucleic acid)
DNA: CCAATGCCAAAGCAGTTTACATTTTACAGATGCCATGGCAACCGTCAGGAAGTTACCCTGTATGGTCTAAGAGGGGGAGGAACCCTCAGTTCCGGGAATTGCCCGCCCCTTTCCCGGAAACTCATGAATAATCCACCCCGTTCCCCCTTAACAAAAGCCACCTCCTCCCTCCTGAAAGGCACCATTGGTCACCAAAACAAGTCCCCTTTGTCCTCCACCGCAGCTGGAGCCTGGGCCTTCCATCTCCTGGGGGCCAATAAAACCCCAGATCAGCCAATCCTCCCTCCCTGGCTCTGTCATCCAAACACTCCCCTGCAACAGATGTACACACAGAGCCCATTGTTTTCTCTAGAAATGTAAACTGCACGTCACAGTTACTCCATACACACCACAAACAGACTCCCTTTGTTCTCAGGATATGTGTTGACACAAGAATATGTCATCCTCTCAGCTCCAGACTGAAAGAGATGGGTGTGTGGGAGTGGGGGAAGCTGAGCTCCAGGCAGACAGCACAGAGCCGCCTTGTCCAACCCAGCCAGGTGCCATGGCAACCAACAAAGGCCCCATTGTCCCGTGTCTGCTGGGCCTTCCTGAGGCTCTGGGGTCAGAGTCCCGGTT
In the case of B8, the “activity compared with CMV” value with GSC7 cells [1] is “higher than CMV”. For the same molecule, in the series with GSC7 cells [2], the “expression level compared with positive control CMV, flow cytometry” value is listed as “higher than CMV” and the “fluorescence intensity compared with CMV” value is reported as “higher intensity than CMV”.
